Target: Solanum tuberosum aspartic protease plant-specific insert (saposin-like domain), recombinant (Solanum tuberosum)
Test: AUC; sedimentation equilibrium, 26-28 uM PSI, 27 mM sodium phosphate pH 3.0, 140 mM NaCl, 20 °C, single ideal species model; monomer to dimer

stoichiometry N: 2
Substance: Solanum tuberosum aspartic protease plant-specific insert (saposin-like domain), recombinant (domain or fragment)
